From patent publication US20030068675, “Position dependent recognition of GNN nucleotide triplets by zinc fingers” (published 2003)

Experiments:
Assay in all cases: EMSA
Conditions in all cases: tags: MBP fusion
ZFP SBS#1151 = ZFP SBS#1151 (synthetic)
Summary of the method: (§1)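 Purified ZFP was titrated against labeled double-stranded target (1 nM or lower, at least 10-fold below expected Kd) carrying the natural binding site with flanks. Binding buffer was 10 mM Tris pH 7.5, 100 mM KCl, 1 mM MgCl2, 0.1 mM ZnCl2, 5 mM DTT, 10% glycerol, 0.02% BSA, with equilibration for at least 45 min. Bound and free target were separated on a 10% polyacrylamide gel.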

ZFP SBS#1188 = ZFP SBS#1188 (synthetic)
ZFP SBS#1188 (synthetic), sequence (chain, as listed by the source): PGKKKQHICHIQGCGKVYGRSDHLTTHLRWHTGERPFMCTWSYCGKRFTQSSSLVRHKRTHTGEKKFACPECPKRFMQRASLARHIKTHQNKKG
Summary of the method: as §1

ZFP SBS#483 = ZFP SBS#483 (synthetic)
ZFP SBS#483 (synthetic), sequence (chain, as listed by the source): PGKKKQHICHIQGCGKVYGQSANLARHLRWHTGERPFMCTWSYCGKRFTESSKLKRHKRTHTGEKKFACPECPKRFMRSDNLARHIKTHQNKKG
Summary of the method: as §1

ZFP SBS#1187 = target: T1, ZFP SBS#1187 (synthetic, UniProt P08047)
T1 chain: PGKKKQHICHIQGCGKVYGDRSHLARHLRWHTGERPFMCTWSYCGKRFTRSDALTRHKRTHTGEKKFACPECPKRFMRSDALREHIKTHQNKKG
Summary of the method: as §1

ZFP SBS#1201 = target: T2, ZFP SBS#1201 (synthetic)
T2 chain: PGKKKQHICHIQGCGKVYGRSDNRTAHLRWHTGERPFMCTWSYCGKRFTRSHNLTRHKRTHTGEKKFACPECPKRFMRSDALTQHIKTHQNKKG
Summary of the method: as §1

ZFP SBS#1200 = target: T3, ZFP SBS#1200 (synthetic)
T3 chain: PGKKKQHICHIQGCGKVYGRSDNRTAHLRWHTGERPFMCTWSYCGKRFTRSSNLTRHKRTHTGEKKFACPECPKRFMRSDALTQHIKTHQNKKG
Summary of the method: as §1

ZFP SBS#1199 = target: T4, ZFP SBS#1199 (synthetic)
T4 chain: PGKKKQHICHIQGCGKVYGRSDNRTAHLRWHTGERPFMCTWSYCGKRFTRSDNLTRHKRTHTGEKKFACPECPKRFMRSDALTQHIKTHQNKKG
Summary of the method: as §1

ZFP SBS#1192 = ZFP SBS#1192 (synthetic)
ZFP SBS#1192 (synthetic), sequence (chain, as listed by the source): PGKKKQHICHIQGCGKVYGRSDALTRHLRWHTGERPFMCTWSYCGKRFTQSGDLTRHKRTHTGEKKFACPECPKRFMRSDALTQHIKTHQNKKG
Summary of the method: as §1

ZFP SBS#1191 = target: T5, ZFP SBS#1191 (synthetic)
T5 chain: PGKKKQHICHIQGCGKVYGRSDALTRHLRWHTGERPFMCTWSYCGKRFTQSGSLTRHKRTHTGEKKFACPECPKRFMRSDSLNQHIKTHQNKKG
Summary of the method: as §1

ZFP SBS#1193 = target: T6, ZFP SBS#1193 (synthetic)
T6 chain: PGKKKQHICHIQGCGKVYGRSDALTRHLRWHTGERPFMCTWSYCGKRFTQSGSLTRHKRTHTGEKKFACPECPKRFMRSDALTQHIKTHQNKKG
Summary of the method: as §1

ZFP SBS#1190 = ZFP SBS#1190 (synthetic)
ZFP SBS#1190 (synthetic), sequence (chain, as listed by the source): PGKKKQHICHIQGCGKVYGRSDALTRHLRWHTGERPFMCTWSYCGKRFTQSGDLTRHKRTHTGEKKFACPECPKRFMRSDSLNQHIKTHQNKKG
Summary of the method: as §1

ZFP SBS#1209 = target: T7, ZFP SBS#1209 (synthetic)
T7 chain: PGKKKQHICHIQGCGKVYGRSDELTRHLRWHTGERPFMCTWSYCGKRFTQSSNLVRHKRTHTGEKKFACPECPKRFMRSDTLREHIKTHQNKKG
Summary of the method: as §1

ZFP SBS#1116 = target: T8, ZFP SBS#1116 (synthetic)
T8 chain: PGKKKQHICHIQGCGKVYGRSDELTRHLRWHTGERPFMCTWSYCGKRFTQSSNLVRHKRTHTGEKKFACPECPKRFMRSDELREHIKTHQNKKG
Summary of the method: as §1

ZFP SBS#1156 = target: T9, ZFP SBS#1156 (synthetic)
T9 chain: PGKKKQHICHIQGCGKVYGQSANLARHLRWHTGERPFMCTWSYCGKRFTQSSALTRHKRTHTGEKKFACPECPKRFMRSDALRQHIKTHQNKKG
Summary of the method: as §1

ZFP SBS#1189 = target: T10, ZFP SBS#1189 (synthetic)
T10 chain: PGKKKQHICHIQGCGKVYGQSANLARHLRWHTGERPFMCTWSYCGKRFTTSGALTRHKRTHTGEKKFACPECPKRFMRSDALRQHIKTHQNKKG
Summary of the method: as §1

ZFP SBS#1157 = target: T11, ZFP SBS#1157 (synthetic)
T11 chain: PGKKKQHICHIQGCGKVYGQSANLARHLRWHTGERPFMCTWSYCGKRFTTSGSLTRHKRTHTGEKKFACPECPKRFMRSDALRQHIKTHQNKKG
Summary of the method: as §1

ZFP SBS#1197 = target: T12, ZFP SBS#1197 (synthetic)
T12 chain: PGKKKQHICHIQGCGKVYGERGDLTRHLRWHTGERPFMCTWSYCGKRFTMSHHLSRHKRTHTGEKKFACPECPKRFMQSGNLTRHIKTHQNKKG
Summary of the method: as §1

ZFP SBS#1205 = ZFP SBS#1205 (synthetic)
ZFP SBS#1205 (synthetic), sequence (chain, as listed by the source): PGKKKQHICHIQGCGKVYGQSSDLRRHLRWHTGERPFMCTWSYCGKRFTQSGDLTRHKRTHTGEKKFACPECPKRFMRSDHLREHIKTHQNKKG
Summary of the method: as §1

ZFP SBS#1104 = target: T13, ZFP SBS#1104 (synthetic)
T13 chain: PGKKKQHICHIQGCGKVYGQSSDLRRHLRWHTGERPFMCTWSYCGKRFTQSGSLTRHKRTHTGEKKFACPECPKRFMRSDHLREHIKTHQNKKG
Summary of the method: as §1

ZFP SBS#1195 = target: T14, ZFP SBS#1195 (synthetic)
T14 chain: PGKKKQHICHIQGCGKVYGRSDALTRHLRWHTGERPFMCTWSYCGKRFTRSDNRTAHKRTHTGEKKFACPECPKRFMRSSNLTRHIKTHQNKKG
Summary of the method: as §1

ZFP SBS#1194 = target: T15, ZFP SBS#1194 (synthetic)
T15 chain: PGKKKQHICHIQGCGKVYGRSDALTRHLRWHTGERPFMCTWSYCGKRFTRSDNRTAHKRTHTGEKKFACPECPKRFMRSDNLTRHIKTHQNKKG
Summary of the method: as §1

ZFP SBS#1211 = ZFP SBS#1211 (synthetic)
ZFP SBS#1211 (synthetic), sequence (chain, as listed by the source): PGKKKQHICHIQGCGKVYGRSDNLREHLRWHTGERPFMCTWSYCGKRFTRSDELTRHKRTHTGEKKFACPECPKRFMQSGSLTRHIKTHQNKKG
Summary of the method: as §1

ZFP SBS#1117 = ZFP SBS#1117 (synthetic)
ZFP SBS#1117 (synthetic), sequence (chain, as listed by the source): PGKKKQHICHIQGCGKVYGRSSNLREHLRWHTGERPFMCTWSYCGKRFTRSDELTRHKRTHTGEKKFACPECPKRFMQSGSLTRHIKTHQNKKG
Summary of the method: as §1

ZFP SBS#1179 = ZFP SBS#1179 (synthetic)
ZFP SBS#1179 (synthetic), sequence (chain, as listed by the source): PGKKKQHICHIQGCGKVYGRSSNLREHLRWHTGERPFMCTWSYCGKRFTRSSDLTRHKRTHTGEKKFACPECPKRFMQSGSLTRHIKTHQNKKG
Summary of the method: as §1

ZFP SBS#1180 = ZFP SBS#1180 (synthetic)
ZFP SBS#1180 (synthetic), sequence (chain, as listed by the source): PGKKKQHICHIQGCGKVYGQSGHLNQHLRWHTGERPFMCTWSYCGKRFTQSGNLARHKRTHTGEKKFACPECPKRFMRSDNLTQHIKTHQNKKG
Summary of the method: as §1

ZFP SBS#1185 = target: T16, ZFP SBS#1185 (synthetic)
T16 chain: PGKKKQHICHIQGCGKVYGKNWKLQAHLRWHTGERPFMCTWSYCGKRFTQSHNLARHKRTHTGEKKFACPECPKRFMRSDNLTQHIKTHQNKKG
Summary of the method: as §1

ZFP SBS#1184 = target: T17, ZFP SBS#1184 (synthetic)
T17 chain: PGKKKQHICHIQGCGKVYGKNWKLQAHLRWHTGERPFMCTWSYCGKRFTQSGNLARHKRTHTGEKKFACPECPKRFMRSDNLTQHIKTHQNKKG
Summary of the method: as §1

ZFP SBS#1202 = target: T18, ZFP SBS#1202 (synthetic, UniProt P08047)
T18 chain: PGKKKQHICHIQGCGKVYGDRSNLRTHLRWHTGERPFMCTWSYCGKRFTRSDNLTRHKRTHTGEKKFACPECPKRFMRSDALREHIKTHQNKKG
Summary of the method: as §1

ZFP SBS#1186 = target: T19, ZFP SBS#1186 (synthetic)
T19 chain: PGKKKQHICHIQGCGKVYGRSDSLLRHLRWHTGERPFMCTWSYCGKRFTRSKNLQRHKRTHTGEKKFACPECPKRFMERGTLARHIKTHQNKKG
Summary of the method: as §1

ZFP SBS#480 = target: T20, ZFP SBS#480 (synthetic)
T20 chain: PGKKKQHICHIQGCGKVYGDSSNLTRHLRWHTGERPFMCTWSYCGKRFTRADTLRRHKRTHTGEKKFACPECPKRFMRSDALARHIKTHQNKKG
Summary of the method: as §1

ZFP SBS#479 = target: T21, ZFP SBS#479 (synthetic, UniProt P08047)
T21 chain: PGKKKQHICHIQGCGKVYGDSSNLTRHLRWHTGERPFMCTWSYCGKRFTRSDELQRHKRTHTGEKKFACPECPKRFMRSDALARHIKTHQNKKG
Summary of the method: as §1

ZFP SBS#1207 = target: T22, ZFP SBS#1207 (synthetic)
T22 chain: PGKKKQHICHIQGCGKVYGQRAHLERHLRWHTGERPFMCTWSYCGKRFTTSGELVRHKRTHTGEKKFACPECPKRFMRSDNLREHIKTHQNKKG
Summary of the method: as §1

ZFP SBS#1108 = target: T23, ZFP SBS#1108 (synthetic)
T23 chain: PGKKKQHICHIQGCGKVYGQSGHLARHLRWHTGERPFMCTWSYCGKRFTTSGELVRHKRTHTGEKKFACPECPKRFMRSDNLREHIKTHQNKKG
Summary of the method: as §1

ZFP SBS#1206 = ZFP SBS#1206 (synthetic)
ZFP SBS#1206 (synthetic), sequence (chain, as listed by the source): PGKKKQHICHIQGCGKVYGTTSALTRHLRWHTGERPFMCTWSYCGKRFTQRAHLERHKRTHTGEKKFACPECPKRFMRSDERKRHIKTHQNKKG
Summary of the method: as §1

ZFP SBS#1107 = ZFP SBS#1107 (synthetic)
Summary of the method: as §1

ZFP SBS#1204 = ZFP SBS#1204 (synthetic)
ZFP SBS#1204 (synthetic), sequence (chain, as listed by the source): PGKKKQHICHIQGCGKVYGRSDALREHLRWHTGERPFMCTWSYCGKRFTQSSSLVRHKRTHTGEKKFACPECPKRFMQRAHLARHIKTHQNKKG
Summary of the method: as §1

ZFP SBS#1203 = ZFP SBS#1203 (synthetic)
Summary of the method: as §1

ZFP SBS#1151 (synthetic), sequence (chain, as listed by the source): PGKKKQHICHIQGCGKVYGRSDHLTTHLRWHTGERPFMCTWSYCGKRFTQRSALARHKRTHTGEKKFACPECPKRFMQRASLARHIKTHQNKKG

B1: GTAGTATGG (dsDNA)
DNA 1: GTAGTATGG
DNA 2: CCATACTAC
Kd (ZFP SBS#1151): 1.63 nM
Kd (ZFP SBS#1188): 2.74 nM

B2: GAGGGCGAAG (dsDNA)
DNA 1: GAGGGCGAAG
DNA 2: CTTCGCCCTC
Kd (ZFP SBS#483): 130 nM

B3: CTGGTGGGC (dsDNA)
DNA 1: CTGGTGGGC
DNA 2: GCCCACCAG
Kd (ZFP SBS#1187): 0.006 nM

B4: ATGGAGAAG (dsDNA)
DNA 1: ATGGAGAAG
DNA 2: CTTCTCCAT
Kd (ZFP SBS#1201): 14.8 nM
Kd (ZFP SBS#1200): 16.9 nM
Kd (ZFP SBS#1199): 3.43 nM

B5: ATGGCAGTG (dsDNA)
DNA 1: ATGGCAGTG
DNA 2: CACTGCCAT
Kd (ZFP SBS#1192): 2.36 nM
Kd (ZFP SBS#1191): 5.33 nM
Kd (ZFP SBS#1193): 3.12 nM
Kd (ZFP SBS#1190): 1.48 nM

B6: CCGGAAGCG (dsDNA)
DNA 1: CCGGAAGCG
DNA 2: CGCTTCCGG
Kd (ZFP SBS#1209): 19.3 nM
Kd (ZFP SBS#1116): 12.3 nM

B7: ATGGTTGAA (dsDNA)
DNA 1: ATGGTTGAA
DNA 2: TTCAACCAT
Kd (ZFP SBS#1156): 7.2 nM
Kd (ZFP SBS#1189): 1.51 nM
Kd (ZFP SBS#1157): 0.885 nM

B8: GAAGGTGCC (dsDNA)
DNA 1: GAAGGTGCC
DNA 2: GGCACCTTC
Kd (ZFP SBS#1197): 14.8 nM

B9: CGGGCAGCT (dsDNA)
DNA 1: CGGGCAGCT
DNA 2: AGCTGCCCG
Kd (ZFP SBS#1205): 0.9 nM
Kd (ZFP SBS#1104): 0.08 nM

B10: GAGAAGGTG (dsDNA)
DNA 1: GAGAAGGTG
DNA 2: CACCTTCTC
Kd (ZFP SBS#1195): 2.8 nM
Kd (ZFP SBS#1194): 2.19 nM

B11: GCAGCGCAG (dsDNA)
DNA 1: GCAGCGCAG
DNA 2: CTGCGCTGC
Kd (ZFP SBS#1211): 6.5 nM
Kd (ZFP SBS#1117): 2.85 nM
Kd (ZFP SBS#1179): 2.73 nM

B12: AAGGAAAGA (dsDNA)
DNA 1: AAGGAAAGA
DNA 2: TCTTTCCTT
Kd (ZFP SBS#1180): 4.83 nM
Kd (ZFP SBS#1185): 5.25 nM
Kd (ZFP SBS#1184): 2.79 nM

B13: CTGGAGTAC (dsDNA)
DNA 1: CTGGAGTAC
DNA 2: GTACTCCAG
Kd (ZFP SBS#1202): 2.83 nM

B14: GCCGAGGTG (dsDNA)
DNA 1: GCCGAGGTG
DNA 2: CACCTCGGC
Kd (ZFP SBS#1186): 27.5 nM

B15: GTGGCGGACC (dsDNA)
DNA 1: GTGGCGGACC
DNA 2: GGTCCGCCAC
Kd (ZFP SBS#480): 5 nM
Kd (ZFP SBS#479): 8.5 nM

B16: CAGGCTGGA (dsDNA)
DNA 1: CAGGCTGGA
DNA 2: TCCAGCCTG
Kd (ZFP SBS#1207): 0.45 nM
Kd (ZFP SBS#1108): 0.007 nM

B17: GCGGGAGTT (dsDNA)
DNA 1: GCGGGAGTT
DNA 2: AACTCCCGC
Kd (ZFP SBS#1206): 0.034 nM
Kd (ZFP SBS#1107): 0.06 nM

B18: GGAGTACTG (dsDNA)
DNA 1: GGAGTACTG
DNA 2: CAGTACTCC
Kd (ZFP SBS#1204): 4.38 nM
Kd (ZFP SBS#1203): 2.94 nM
